The assay concerns the target latency-associated peptide (LAP) of TGFβ1 (human (endogenous in human skin fibroblasts)) (UniProt P01137).

With “mature TGFβ1 ligand (from UniProt P01137 279-390)”, the luciferase activity of mink lung TGFβ1 reporter cells given heat-treated (80 °C, 10 min) DOC-insoluble fractions of ML-II fibroblasts turned out to be 3 fold.

Source of the values: PMC7277838.
